From patent US20200376136A1 (Regeneron, published 2020)
Numbering of substitutions follows the chain as printed.

T1: human six-transmembrane epithelial antigen of prostate 2 (STEAP2) (human, UniProt Q8NFT2 1-490)
T1 construct: also called hSTEAP2
T1 sequence: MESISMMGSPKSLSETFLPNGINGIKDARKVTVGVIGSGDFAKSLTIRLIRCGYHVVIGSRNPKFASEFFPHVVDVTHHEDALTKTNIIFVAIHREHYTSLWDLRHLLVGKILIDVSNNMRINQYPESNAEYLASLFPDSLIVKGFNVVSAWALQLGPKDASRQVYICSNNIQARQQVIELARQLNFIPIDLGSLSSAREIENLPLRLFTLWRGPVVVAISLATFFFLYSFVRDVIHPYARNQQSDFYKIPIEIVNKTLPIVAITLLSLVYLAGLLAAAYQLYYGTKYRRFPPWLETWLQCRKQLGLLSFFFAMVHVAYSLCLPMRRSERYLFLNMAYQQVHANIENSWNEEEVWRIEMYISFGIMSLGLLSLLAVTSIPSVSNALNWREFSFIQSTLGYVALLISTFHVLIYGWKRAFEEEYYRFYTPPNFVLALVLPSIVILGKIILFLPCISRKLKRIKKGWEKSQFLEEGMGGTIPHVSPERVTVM

B1: BSSTEAP2/CD3-011 (bispecific antibody, V domains shown)
VH 1: QVQLVESGGGVVQPGRSLGLSCAASGFTFSSYGMHWVRQAPGKGLEWVAVIWYDGSNKYYVDSVKGRFTISRDNSKNTLYLQMNSLRAEDTAVYYCAREGLRFLENYYYYYGMDVWGQGTTVTVSS
VH 2: EVQLVQSGGGLVQPGRSLRLSCAASGFTFADYTMHWVRQTPGKGLEWVSGISWNSGSKDYADSVKGRFTISRDNAKNSLYLQMNSLRTEDTALYYCAKYGSGYGRYFFYAMDVWGQGTTVTVSS
VL: EIVLTQSPGTLSLSPGERATLSCRASQSISSTYLAWYQQRPGQAPRLLIYGASSRATGIPDRFSGSGSGTDFTLTISRLEPEDFAVYYCQQYGTSPYTFGQGTKLEIK
notes: also called BSSTEAP2/CD3-0011
B2: H1H7972P (antibody, human IgG1, V domains shown)
VH: QVQLQQSGPGLVKPSQTLSLTCAISGDSVSSNSAAWNWIRQSPSRGLEWLGRTYYRSKWYNDYVVSVKSRIIFNPDTSKNQFSLQLNSVTPEDTAVYYCARVRQDYRSGPFDYWGQGTLVTVSS
VL: EIVMTQSPVTLSVSPGERATLSCWASQSVSSSLAWYQQKPGQAPRLLIYGASTRATGIPARFSGSGSGTGFTLTISSLQSEDFAVYYCQQYNNWPFTFGPGTKVDIK
B3: H1H11897P2 (antibody, human IgG1, V domains shown)
VH: EVQLVESGGGLVQPGGSLRLSCAVSGFTFSSYAMSWVRQAPGKGLEWVSVISGSGDFTYHADSVKGRFTISRDNSKSTLYLQLNSLRAEDTAVYYCAKKGLRYFDWYDYWGQGTLVTVSS
VL: not shown
B4: H1H7814N (antibody, human IgG1, V domains shown)
VH: QVQLVESGGGVVQPGRSLRLSCVASGFTISSYGMNWVRQAPGKGLEWVAVISYDGGNKYSVDSVKGRFTISRDNSKNTLYLQMNSLRAEDSAVYYCARGRYFDLWGRGTLVTVSS
VL: DIQMTQSPSTLSASVGDRVTITCRASQSISSWLAWYQQKPGRAPNLLISKASSLKSGVPSRFSGSGSGTEFTLTVSSLQPDDFATYYCQQYYSYSYTFGQGTKLEIK
B5: H1H7810N (antibody, human IgG1, V domains shown)
VH: B4 VH with V23A, A24V, I29S, S31T, G56S, S60Y, V61A, A88P, S91T
VL: B4 VL with S28I, R42K, N45K, S49Y, K55A, V75I, Y92K
B6: H1H7811N (antibody, human IgG1, V domains shown)
VH: QVQLVESGGGVVQPGRSLRLSCAVSGFTSSTYGMNWVRQAPGKGLEWVAVISFDGSNKYYADSVKGRFTISRDNSKNTLYLQMSSLRPEDTAVYYCARGRYFDLWGRGTLVTVSS
VL: B4 VL with I2T, S28I, R42K, N45K, S49Y, K55A, V75I, Y92K, K103N
B7: H1H11888P2 (antibody, human IgG1, V domains shown)
VH: QVQLQESGPGLVKPSQTLSLTCTVSGYSINSGGHFWSWIRQHPGKGLEWIGDIYYSGNTYSIPSLKRRISMSVDTSKNHFSLKLISVTAADTAIYYCARNSGGYLDAFDIWGQGTMVTVSS
VL: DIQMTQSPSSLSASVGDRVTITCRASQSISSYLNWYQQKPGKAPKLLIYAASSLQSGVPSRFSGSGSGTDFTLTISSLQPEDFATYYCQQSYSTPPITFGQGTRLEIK
B8: H1H11895P2 (antibody, human IgG1, V domains shown)
VH: QVQLQESGPGLVKPSETLSLTCTVSGGSISIYYWTWIRQPPGKGLEWIGNIFYSGSTNYNPSLKSRVTISVDTSKNQFSLKLSSVTAADTAVYYCARERLGRYDAFDNWGQGTMVTVSS
VL: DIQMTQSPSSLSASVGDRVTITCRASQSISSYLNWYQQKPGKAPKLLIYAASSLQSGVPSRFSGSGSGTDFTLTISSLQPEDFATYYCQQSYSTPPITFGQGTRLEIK
B9: H1H11878P (antibody, human IgG1, V domains shown)
VH: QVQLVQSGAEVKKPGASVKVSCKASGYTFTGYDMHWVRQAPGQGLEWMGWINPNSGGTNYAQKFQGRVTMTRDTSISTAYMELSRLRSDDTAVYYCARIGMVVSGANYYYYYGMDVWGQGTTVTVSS
VL: AIQMTQSPSSLSAYVGDRVIITCRASQGIRNDLGWYQQKPGKAPKLLIYAASSLQSGVPSRFSGSRSGTVFTLTISSLQPEDFATYYCLQDYNYPWTFGQGTKVEIK
B10: H1H11880P (antibody, human IgG1, V domains shown)
VH: EVQLVESGGGLVQPGGSLRLSCAASGFTFSTYAMHWVRQAPGKGLQHVSTISTNGVNTYYADSVKGRFTISRDNSKSTLYLQMGSLRAEDMAVYYCARDKDFWSGYFDYWGQGTLVTVSS
VL: EIVMTQSPGTLSVSPGERATLSCRASQSVSSNLAWYHQKPGQAPRLLIYGASTRATGFPARFSGSGSGTEFTLTISSLQSEDFAAYYCQQYNNWPITFGQGTRLEIK
B11: H1H11894P2 (antibody, human IgG1, V domains shown)
VH: QVQLVQSGAEVKKPGSSVKVSCRASGGTFSRFAIGWVRQAPGQGLEWMGGIIPIFGTASYAQKFQGRVTITTDESTSTAYMELRSLRSEDTAVYYCTREGITGRGYYYYGMDVWGQGTTVTVSS
VL: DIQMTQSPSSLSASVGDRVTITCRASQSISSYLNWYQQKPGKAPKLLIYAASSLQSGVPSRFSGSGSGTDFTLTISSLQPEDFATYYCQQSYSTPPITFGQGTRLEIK
B12: H1H11893P2 (antibody, human IgG1, V domains shown)
VH: QVQLVQSGAEVKKPGASVKVSCKVSGYTLTELSMHWVRQAPGKGLEWMGSFDPEDDETIYAQKFQGRVTMTEDTSTDTAYMDLSSLRSEDTAVYYCSIEEVRWRGSDYYYVMDVWGQGTTVTVSS
VL: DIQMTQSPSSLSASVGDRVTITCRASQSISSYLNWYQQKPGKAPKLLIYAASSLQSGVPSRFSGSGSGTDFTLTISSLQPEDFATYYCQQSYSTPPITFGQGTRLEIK
B13: H1H11896P2 (antibody, human IgG1, V domains shown)
VH: EVQLVESGGGLVQPGGSLRLSCAASRFTFSSYAMSWVRQAPGKGLEWVSLISGSGGRTWYADSVKGRFTISRDNSKNTLFLQMNSLRAEDTAVYYCAKEGGIFGVVTFFDYWGQGTLVTVSS
VL: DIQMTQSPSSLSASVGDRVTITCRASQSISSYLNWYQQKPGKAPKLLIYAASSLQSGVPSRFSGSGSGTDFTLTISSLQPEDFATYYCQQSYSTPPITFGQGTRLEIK
B14: H1H11162N (antibody, human IgG1, V domains shown)
VH: QVQLQQSGPGLVKPSQTLSLTCAISGDSVSSNRAAWNWIRQSPSRGLQWLGRTYYRSKWYNDYAVSLRSRITINPVTSKNQVALHMNSVTPEDTAVYYCARAGIVVVPGPETFYYYDHGLDVWGQGTTVTVSS
VL: DIQMTQSPSSLSASVGDRVTITCRASQSIRSYLNWYQQKPGKAPELLIHAASSLQSGVPSRFSGSGSGTDFTLTISSLQPEDFASYYCQQSYSAPPITFGQGTRLEIK
B15: H1H11164N (antibody, human IgG1, V domains shown)
VH: B14 VH with A23V, S31T, R33S, Q48E, L67V, M86L, F113Y, D117Y
VL: B14 VL with S28N, E45K, A50V, S85T, A94T, Q101H
B16: H1H11163N (antibody, human IgG1, V domains shown)
VH: QVQLQQSGPGLVKPSQALSLTCAISGDSVSSNSAAWNWIRQSPSRGLEWLGRTYYRSKWYNDYAVSVKSRITINPDTSKNHFSLHLNSMTPEDTAVYYCARARIVVVPGPEVYYYYYYDMDVWGQGTTVTVSS
VL: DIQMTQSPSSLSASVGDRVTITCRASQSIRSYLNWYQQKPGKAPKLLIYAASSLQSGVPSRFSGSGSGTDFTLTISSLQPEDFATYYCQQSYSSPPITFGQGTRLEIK
B17: H1H11243N (antibody, human IgG1, V domains shown)
VH: B16 VH with A17T, H81Q, M89V, R103G, E111D, V112I, D119G
VL: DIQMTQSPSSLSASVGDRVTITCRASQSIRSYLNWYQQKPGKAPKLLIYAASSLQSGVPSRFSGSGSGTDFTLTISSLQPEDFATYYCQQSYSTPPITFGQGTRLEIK
B18: H1H7809N (antibody, human IgG1, V domains shown)
VH: B1 VH 1
VL: B1 VL
B19: H1H11892P2 (antibody, human IgG1, V domains shown)
VH: EVQLVESGGGLVQPGGSLRLSCATSGFTFSNYDFHWVRQIRGQGLEWVSTIDTAGDTYFSGSVKGRFTISRDTAKTSLYLQMNSLRAGDTAVYYCARAPRYDSTGNYYNYYSYFGLDVWGQGTTVTVSS
VL: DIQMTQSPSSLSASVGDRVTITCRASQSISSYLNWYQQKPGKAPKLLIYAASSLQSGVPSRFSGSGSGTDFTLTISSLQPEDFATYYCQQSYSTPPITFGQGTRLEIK

These binders were tested against T2, human CD3 (human, UniProt P07766 23-207; P04234 22-171) (assay: FACS titration on Jurkat cells (human CD3)).
T2 construct: As expressed on Jurkat cells or human T cells within the T cell receptor complex; also called hCD3
T2 sequence (P07766 23-207 limits assumed, chain 1 of 2): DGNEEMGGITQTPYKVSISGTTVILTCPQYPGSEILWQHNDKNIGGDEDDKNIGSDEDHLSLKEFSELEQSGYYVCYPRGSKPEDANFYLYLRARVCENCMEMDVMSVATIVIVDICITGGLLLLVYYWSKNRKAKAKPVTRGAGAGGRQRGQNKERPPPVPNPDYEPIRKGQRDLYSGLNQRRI
T2 sequence (P04234 22-171 limits assumed, chain 2 of 2): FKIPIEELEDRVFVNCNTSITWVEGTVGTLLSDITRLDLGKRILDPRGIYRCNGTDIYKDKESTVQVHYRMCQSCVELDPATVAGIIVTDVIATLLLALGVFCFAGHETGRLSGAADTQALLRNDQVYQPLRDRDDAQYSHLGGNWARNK
Method: Flow cytometric analysis was utilized to determine binding of STEAP2×CD3 bispecific antibodies to Jurkat, PC3_STEAP2/1 chimeric and cynomolgus T cells, followed by detection with a phycoerythrin (PE)-labeled anti-human IgG antibody. […] After incubation, the cells were washed twice with cold PBS containing 1% filtered FBS and a PE-conjugated anti-human secondary antibody was added to the cells and incubated for an additional 30 minutes. Wells containing no antibody or secondary antibody only were used as a control. After incubation, cells were washed, re-suspended in 200 μL cold PBS containing 1% filtered FBS and analyzed by flow cytometry on a BD FACS Canto II.

| EC50 [nM] | Binder |
| --- | --- |
| 8.63 | B1 |

These binders were tested against T1, human six-transmembrane epithelial … (assay: FACS on HEK293 cells (low STEAP2), MFI fold above unstained, average at 100-300 nM antibody).
Method: (§1) Briefly, 1×10⁵ cells were incubated with 10 μg/ml of anti STEAP2 antibodies, or isotype control antibodies for 30 min on ice in antibody dilution buffer. Following one wash with antibody dilution buffer, cells were incubated with 10 μg/ml of PE conjugated anti-human or antimouse Fc secondary antibodies for 30 min on ice. Following one additional wash, samples were incubated with Cytofix (1% formaldehyde) for 20 minutes. After one final wash, samples were filtered through a Pall 96 well filtration block, run on a Hypercyt® cytometer and analyzed in ForeCyt™ (IntelliCyt, Albuquerque, N. Mex.). Mean fluorescence intensities (MFI) were expressed as fold change above unstained levels (background). The average fold above background at antibody concentrations of 100-300 nM were determined.

| Avg F.A.B (fold above background) | Binder |
| --- | --- |
| 4 | B2 |
| 16 | B3 |
| 2 | B4 |
| 3 | B5 |
| 5 | B6 |
| 9 | B7 |
| 4 | B8 |
| 5 | B9 |
| 7 | B10 |
| 4 | B11 |
| 3 | B12 |
| 7 | B13 |
| 10 | B14 |
| 10 | B15 |
| 6 | B16 |
| 3 | B17 |
| 31 | B18 |
| 3 | B19 |

What follows are binders tested against T2, human CD3 (assay: cell-based or functional assay).

| hPBMC Proliferation [M] (EC50, with anti-CD28) | Binder |
| --- | --- |
| 8.62e-12 | B1 |

These binders were tested against T1, human six-transmembrane epithelial … (assay: FACS on C4-2 cells (endogenous STEAP2), MFI fold above unstained, average at 100-300 nM antibody).
Method: as §1

| Avg F.A.B (fold above background) | Binder |
| --- | --- |
| 119 | B2 |
| 29 | B3 |
| 96 | B4 |
| 26 | B5 |
| 65 | B6 |
| 6 | B7 |
| 6 | B8 |
| 27 | B9 |
| 6 | B10 |
| 7 | B11 |
| 9 | B12 |
| 6 | B13 |
| 104 | B14 |
| 117 | B15 |
| 90 | B16 |
| 41 | B17 |
| 89 | B18 |
| 4 | B19 |

Each binder was assayed against T1, human six-transmembrane epithelial … (assay: FACS titration on C4-2 cells (endogenous STEAP2), 4-parameter fit).
Method: as §1

| EC50 [nM] | Binder |
| --- | --- |
| 9 | B2 |
| > 50 | B3 |
| 4 | B4 |
| > 50 | B6 |
| 3 | B7 |
| 16 | B8 |
| > 50 | B9 |
| 5 | B10 |
| 21 | B12 |
| 21 | B13 |
| 1 | B14 |
| 2 | B15 |
| 3 | B16 |
| > 50 | B18 |
